Reference: publication PMC9866879, “BREVIPEDICELLUS Positively Regulates Salt-Stress Tolerance in Arabidopsis thaliana”

Columns and labels:
BP (B…US) [1] = target: T1, BP (B…US) (Arabidopsis thaliana, UniProt P46639 1-398); experiment: EMSA; LightShift Chemiluminescent EMSA kit (Thermo) per manufacturer's protocol; buffer, salt, pH and temperature not stated; conditions: protein: recombinant; tags: GST (pGEX4T-3); label: biotin; blunt
T1 sequence: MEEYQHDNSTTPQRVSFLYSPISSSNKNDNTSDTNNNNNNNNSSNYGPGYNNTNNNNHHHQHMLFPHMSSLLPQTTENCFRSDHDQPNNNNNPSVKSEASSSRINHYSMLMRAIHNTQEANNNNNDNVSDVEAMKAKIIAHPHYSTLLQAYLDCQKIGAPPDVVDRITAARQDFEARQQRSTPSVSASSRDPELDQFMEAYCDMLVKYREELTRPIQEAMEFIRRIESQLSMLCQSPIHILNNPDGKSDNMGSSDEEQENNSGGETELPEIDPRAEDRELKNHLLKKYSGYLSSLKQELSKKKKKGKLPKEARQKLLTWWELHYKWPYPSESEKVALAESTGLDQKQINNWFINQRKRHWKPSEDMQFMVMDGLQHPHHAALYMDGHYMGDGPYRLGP

BP (B…US) [2] = target: T1, BP (B…US); experiment: competition; unlabeled competitor against biotin-labelled N1; signal gradually decreased; LightShift Chemiluminescent EMSA kit (Thermo) per manufacturer's protocol; buffer, salt, pH and temperature not stated; conditions: protein: recombinant; tags: GST (pGEX4T-3); blunt

B1: XTH7 promoter probe (TGAC) (dsDNA)
DNA 1: TGTAATGCTGACACGTGTCCCAGT
DNA 2: ACTGGGACACGTGTCAGCATTACA
Does B1 bind (BP (B…US) [1])?
Result: binds

B2: XTH7 promoter probe, unlabeled competitor (dsDNA)
DNA 1: TGTAATGCTGACACGTGTCCCAGT
DNA 2: ACTGGGACACGTGTCAGCATTACA
Does B2 bind (BP (B…US) [2])?
Result: binds
